Experimental data published in patent publication US20110086041A1.

Tests used:
[1] = biological target: HXB2-gp41-interf-GCN4 (HIV-1 isolate HXB2) (UniProt P04578); assay: SPR, His-4E10 scFv on Ni-NTA chip, HXB2gp41-interf-GCN4 flowing at 50 nM, single concentration
[2] = biological target: biotinylated 4E10 epitope peptide; assay: SPR, biotinylated 4E10 epitope peptide on SA chip, 4E10 scFv flowing
[3] = biological target: 92UG-gp41-inter-Fd (HIV-1 isolate 92UG037.8); assay: SPR, 92UGgp41-inter-Fd immobilized on CM-5, 4E10 scFv flowing at 50 nM, single concentration
[4] = biological target: 92UG-gp140-Fd trimer (HIV-1 isolate 92UG037.8); assay: SPR, 92UGgp140-Fd immobilized, 2G12 Fab flowing, 1:1 Langmuir model
[5] = biological target: 92UG-gp41-inter-Fd (HIV-1 isolate 92UG037.8); assay: SPR, told of the gp41-inter proteins as a group
[6] = biological target: HXB2-gp41-inter-GCN4 (HIV-1 isolate HXB2) (UniProt P04578); assay: SPR, told of the gp41-inter proteins as a group
[7] = biological target: 92UG-gp41-inter-Fd (HIV-1 isolate 92UG037.8); assay: SPR, 92UGgp41-inter-Fd immobilized, 2F5 Fab flowing
[8] = biological target: 92UG-gp41-post (HIV-1 isolate 92UG037.8); assay: SPR, 2F5 Fab immobilized, 92UGgp41-post flowing
[9] = biological target: short 2F5 epitope peptide; assay: SPR, 2F5 Fab immobilized, 2F5 epitope peptide flowing
[10] = biological target: 92UG-gp41-inter-Fd (HIV-1 isolate 92UG037.8); assay: SPR, told of the gp41-inter proteins as a group; Table 1 ties this value to 92UGgp41-inter-Fd
[11] = biological target: T20 peptide; assay: SPR, 2F5 Fab immobilized, T20 flowing
[12] = biological target: short 2F5 epitope peptide; assay: SPR, 2F5 epitope peptide immobilized, 2F5 Fab flowing
[13] = biological target: 92UG-gp41-inter-Fd (HIV-1 isolate 92UG037.8); assay: SPR, 2F5 Fab immobilized, 92UGgp41-inter-Fd flowing, 1:1 Langmuir model
[14] = biological target: HXB2-gp41-inter-GCN4 (HIV-1 isolate HXB2) (UniProt P04578); assay: SPR, 2F5 Fab immobilized, HXB2gp41-inter-GCN4 flowing, 1:1 Langmuir model
[15] = biological target: HXB2-gp41-inter-GCN4 (HIV-1 isolate HXB2) (UniProt P04578); assay: SPR, 2F5 Fab immobilized, HXB2gp41-inter-GCN4 flowing; dissociation phase virtually flat, actual off-rate probably slower
[16] = biological target: 92UG-gp41-inter-Fd (HIV-1 isolate 92UG037.8); assay: SPR, 2F5 Fab immobilized, 92UGgp41-inter-Fd flowing; dissociation phase virtually flat, actual off-rate probably slower
[17] = biological target: monomeric 92UG-gp120 core protein (HIV-1 isolate 92UG037); assay: SPR, b6 IgG immobilized, 92UG gp120 flowing, single analyte concentration
[18] = biological target: monomeric 92UG-gp120 core protein (HIV-1 isolate 92UG037); assay: SPR; told with a reference to Rits-Volloch et al. 2006 and FIG. 6C
[19] = biological target: monomeric 92UG-gp120 core protein (HIV-1 isolate 92UG037); assay: SPR, b12 IgG immobilized, 92UG gp120 flowing, single analyte concentration

## 4E10 single-chain Fv fragment (scFv)
[1]
  Kd: 2.98 nM
  koff: 0.000443 s⁻¹
  kon: 149000 M⁻¹ s⁻¹
[2]
  Kd: 18.6 nM
  koff: 0.000685 s⁻¹
  kon: 36900 M⁻¹ s⁻¹
[3]
  Kd: 1.07 nM
  koff: 0.000171 s⁻¹
  kon: 160000 M⁻¹ s⁻¹

## Fab fragment of broadly neutralizing antibody 2G12
[4]
  Kd: 17.9 nM
  koff: 0.000958 s⁻¹
  kon: 53500 M⁻¹ s⁻¹

## Fab fragment of mAb 2F5
[5]
  Kd: < 10 nM
[6]
  Kd: < 10 nM
[7]
  Kd: 3.24 nM
  koff: 0.000496 s⁻¹
  kon: 153000 M⁻¹ s⁻¹
[8]
  Kd: 1410 nM
  koff: 0.00243 s⁻¹
  kon: 1660 M⁻¹ s⁻¹
[9]
  Kd: 3.83 nM
  koff: 0.00329 s⁻¹
  kon: 859000 M⁻¹ s⁻¹
[10]
  koff: < 1.4e-05 s⁻¹
[11]
  Kd: 4.79 nM
  koff: 0.00217 s⁻¹
  kon: 454000 M⁻¹ s⁻¹
[12]
  Kd: 5.33 nM
  koff: 0.0015 s⁻¹
  kon: 282000 M⁻¹ s⁻¹
[13]
  Kd: 1.38 nM
  kon: 10000 M⁻¹ s⁻¹
[14]
  Kd: 8.96 nM
  kon: 6820 M⁻¹ s⁻¹
[15]
  koff: 6.11e-05 s⁻¹
[16]
  koff: 1.39e-05 s⁻¹

## mAb b6 whole IgG (antibody)
[17]
  Kd: 2.69 nM
  koff: 0.000151 s⁻¹
  kon: 56200 M⁻¹ s⁻¹

## mAb b12 whole IgG (antibody)
[18]
  Kd: 1400 nM
[19]
  Kd: 993 nM
  koff: 0.0149 s⁻¹
  kon: 15000 M⁻¹ s⁻¹
